This note sets out measurements from the supplement of paper PMC9112550, “Optimization of the antimicrobial peptide Bac7 by deep mutational scanning” (BMC Biology, 2022).

The test system of the data set is Escherichia coli TOP10. Description: shrunken log2 fold change of peptide-encoding DNA abundance (4.5 h post-induction vs induction); higher = less antimicrobial activity (less host growth inhibition). The settings on record: time post-induction: 4.5 h; library: site-saturation at positions 5, 18, 19, 20.
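Note: peptides expressed intracellularly from a pBAD plasmid library in pooled LB shake-flask culture, induced with 0.3% L-arabinose, DNA abundance read by NGS, three biological replicates, DESeq2 with apeglm shrinkage.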

In the case of RRIRNRPPRLPRPRPRPVWAPRP, the “shrunken log2 fold change” value was 0.599. As for RRIRCRPPRLPRPRPRPNGVPRP, the “shrunken log2 fold change” value is -0.216. Under RRIRARPPRLPRPRPRPEGVPRP stands 1.1. For RRIRPRPPRLPRPRPRPSGWPRP the value was 0.57; for RRIRQRPPRLPRPRPRPHPGPRP, 0.125. For the sequence RRIRERPPRLPRPRPRPIDLPRP, the “shrunken log2 fold change” value is -0.219. For RRIRWRPPRLPRPRPRPCMIPRP the value was -0.471; for RRIRARPPRLPRPRPRPHDMPRP, 0.245.

Turning to RRIRIRPPRLPRPRPRPQCSPRP, the “shrunken log2 fold change” value is -0.46. Under RRIRLRPPRLPRPRPRPQMAPRP stands -0.0634; under RRIRPRPPRLPRPRPRPLQAPRP, 0.496; under RRIRYRPPRLPRPRPRPSVCPRP, -0.769. Take RRIRWRPPRLPRPRPRPFESPRP: the “shrunken log2 fold change” value was -0.0622. For RRIRYRPPRLPRPRPRPDTNPRP the value was -0.0185; for RRIRCRPPRLPRPRPRPIQVPRP, -0.191; for RRIRCRPPRLPRPRPRPYCYPRP, -0.669.

As to RRIRDRPPRLPRPRPRPQADPRP, the “shrunken log2 fold change” value turned out to be 0.103. As to RRIRRRPPRLPRPRPRPADVPRP, the “shrunken log2 fold change” value turned out to be 0.146. For RRIRTRPPRLPRPRPRPFNQPRP the value was -0.163; for RRIRFRPPRLPRPRPRPPIPPRP, 0.257. Under RRIRSRPPRLPRPRPRPSFAPRP stands 0.0497; under RRIRGRPPRLPRPRPRPADKPRP, 0.365; under RRIRTRPPRLPRPRPRPCQDPRP, -0.13.

Turning to RRIRFRPPRLPRPRPRPQEKPRP, the “shrunken log2 fold change” value is -0.0525.

In the case of RRIRPRPPRLPRPRPRPYDTPRP, the “shrunken log2 fold change” value amounted to 0.0749. For RRIRERPPRLPRPRPRPMSDPRP the value was -0.235. Under RRIRPRPPRLPRPRPRPRPGPRP stands 0.555; under RRIRGRPPRLPRPRPRPETRPRP, 0.109; under RRIRMRPPRLPRPRPRPHVQPRP, -0.0996.

As for RRIRQRPPRLPRPRPRPCKWPRP, the “shrunken log2 fold change” value was -0.0434.

Turning to RRIRLRPPRLPRPRPRPGRWPRP, the “shrunken log2 fold change” value is 0.411. Under RRIRGRPPRLPRPRPRPCIWPRP stands 0.208; under RRIRCRPPRLPRPRPRPNVTPRP, 0.632; under RRIRTRPPRLPRPRPRPCCKPRP, -0.279.

As to RRIRNRPPRLPRPRPRPPLPPRP, the “shrunken log2 fold change” value stood at 0.363. For RRIRARPPRLPRPRPRPNLVPRP the value was -0.0779. For RRIRSRPPRLPRPRPRPLLIPRP the value was -0.0597; for RRIRVRPPRLPRPRPRPALEPRP, 0.495; for RRIRYRPPRLPRPRPRPHEPPRP, -0.133.

Consider RRIRLRPPRLPRPRPRPVSMPRP, for which the “shrunken log2 fold change” value was -0.302.

Turning to RRIRCRPPRLPRPRPRPFFEPRP, the “shrunken log2 fold change” value was -0.0214. Under RRIRERPPRLPRPRPRPQALPRP stands -0.378; under RRIRDRPPRLPRPRPRPYQWPRP, 0.0508; under RRIRMRPPRLPRPRPRPVTGPRP, -0.00102.

Take RRIRCRPPRLPRPRPRPFEEPRP: the “shrunken log2 fold change” value is -0.0957. For RRIRVRPPRLPRPRPRPAWYPRP the value was 0.0171. Under RRIRPRPPRLPRPRPRPNLMPRP stands -0.0727; under RRIRKRPPRLPRPRPRPSAVPRP, 0.0941. Under RRIRCRPPRLPRPRPRPWKLPRP stands -0.269; under RRIRCRPPRLPRPRPRPYKAPRP, -0.279; under RRIRFRPPRLPRPRPRPDLPPRP, -0.0804. Take RRIRLRPPRLPRPRPRPLFVPRP: the “shrunken log2 fold change” value is -0.329. Under RRIRTRPPRLPRPRPRPQKQPRP stands 0.166; under RRIRFRPPRLPRPRPRPPSMPRP, 0.252; under RRIRDRPPRLPRPRPRPADDPRP, 0.637. For RRIRIRPPRLPRPRPRPPTVPRP the value was -0.155. Under RRIRFRPPRLPRPRPRPHTNPRP stands -0.453; under RRIRYRPPRLPRPRPRPTYNPRP, -1.32; under RRIRIRPPRLPRPRPRPMLGPRP, -0.146. On to RRIRIRPPRLPRPRPRPIHAPRP, for which the “shrunken log2 fold change” value was -0.00674. For RRIRDRPPRLPRPRPRPTHNPRP the value was -0.00516; for RRIRTRPPRLPRPRPRPQSMPRP, 0.13; for RRIRYRPPRLPRPRPRPEDTPRP, -0.00443. For RRIRGRPPRLPRPRPRPNAAPRP the value was 2.21. Take RRIRERPPRLPRPRPRPMDYPRP: the “shrunken log2 fold change” value was -0.214. For the sequence RRIRTRPPRLPRPRPRPPKCPRP, the “shrunken log2 fold change” value is -0.339. Turning to RRIRIRPPRLPRPRPRPDFHPRP, the “shrunken log2 fold change” value is -0.649. Regarding RRIRQRPPRLPRPRPRPWIEPRP, the “shrunken log2 fold change” value was -0.0606.

Turning to RRIRFRPPRLPRPRPRPALNPRP, the “shrunken log2 fold change” value was 0.0855. Under RRIRYRPPRLPRPRPRPQTLPRP stands -0.088; under RRIRPRPPRLPRPRPRPKKVPRP, 0.0308; under RRIRSRPPRLPRPRPRPDWDPRP, 0.157. For RRIRCRPPRLPRPRPRPKVIPRP the value was -0.297. Under RRIRPRPPRLPRPRPRPERDPRP stands 0.195; under RRIRGRPPRLPRPRPRPWGLPRP, 0.0474. Turning to RRIRIRPPRLPRPRPRPIQAPRP, the “shrunken log2 fold change” value is -0.209.

Consider RRIRGRPPRLPRPRPRPSKLPRP, for which the “shrunken log2 fold change” value was found to be 0.0492.

On to RRIRTRPPRLPRPRPRPAVVPRP, for which the “shrunken log2 fold change” value stood at 0.0328. Under RRIRVRPPRLPRPRPRPGHHPRP stands 0.00137; under RRIRTRPPRLPRPRPRPLWDPRP, -0.0109. On to RRIRIRPPRLPRPRPRPDVLPRP, for which the “shrunken log2 fold change” value is -1. Under RRIRERPPRLPRPRPRPHHHPRP stands -0.58; under RRIRSRPPRLPRPRPRPPHVPRP, 0.113. Under RRIRCRPPRLPRPRPRPRTYPRP stands -0.447.

RRIRHRPPRLPRPRPRPNICPRP: the “shrunken log2 fold change” value was -0.925. Under RRIRDRPPRLPRPRPRPWQDPRP stands -0.0397; under RRIRHRPPRLPRPRPRPPIRPRP, 0.309. For RRIRYRPPRLPRPRPRPITAPRP the value was -0.00947.

As to RRIRDRPPRLPRPRPRPINAPRP, the “shrunken log2 fold change” value was found to be 0.00476. Under RRIRSRPPRLPRPRPRPYMRPRP stands -0.0496; under RRIRVRPPRLPRPRPRPLMCPRP, -0.268; under RRIRCRPPRLPRPRPRPPWQPRP, 0.389. For RRIRMRPPRLPRPRPRPRCAPRP the value was 1.12; for RRIRDRPPRLPRPRPRPMVQPRP, -0.00146; for RRIRIRPPRLPRPRPRPGRIPRP, 0.0431. For RRIRARPPRLPRPRPRPHYGPRP the value was 0.0153. Regarding RRIRRRPPRLPRPRPRPSPWPRP, the “shrunken log2 fold change” value was determined as 0.335. For RRIRWRPPRLPRPRPRPMNFPRP the value was -0.0285. For RRIRHRPPRLPRPRPRPLVKPRP the value was -0.29; for RRIRMRPPRLPRPRPRPGFSPRP, 0.331. Under RRIRRRPPRLPRPRPRPHWHPRP stands 0.0772.

Turning to RRIRHRPPRLPRPRPRPNNYPRP, the “shrunken log2 fold change” value was -0.857. For RRIRTRPPRLPRPRPRPEPGPRP the value was 0.0826; for RRIRSRPPRLPRPRPRPHVNPRP, -0.259; for RRIRSRPPRLPRPRPRPSPLPRP, -0.324. Under RRIRMRPPRLPRPRPRPAFNPRP stands 0.144. For RRIRVRPPRLPRPRPRPTYWPRP the value was 0.0478. Turning to RRIRGRPPRLPRPRPRPGLTPRP, the “shrunken log2 fold change” value stood at 1.09. Under RRIRQRPPRLPRPRPRPMLSPRP stands -0.0514; under RRIRHRPPRLPRPRPRPINIPRP, -1.01; under RRIRSRPPRLPRPRPRPQTGPRP, 0.0318. Under RRIRKRPPRLPRPRPRPHRWPRP stands 0.00588; under RRIRPRPPRLPRPRPRPTYEPRP, 0.0844; under RRIRWRPPRLPRPRPRPIKVPRP, -0.146. For RRIRERPPRLPRPRPRPLNFPRP the value was -0.34; for RRIRKRPPRLPRPRPRPHHHPRP, -0.208. For RRIRYRPPRLPRPRPRPPSWPRP, the “shrunken log2 fold change” value was determined as 0.133. Regarding RRIRPRPPRLPRPRPRPKPAPRP, the “shrunken log2 fold change” value came out at 0.157. Turning to RRIRMRPPRLPRPRPRPESEPRP, the “shrunken log2 fold change” value turned out to be 3.39. Under RRIRYRPPRLPRPRPRPSNDPRP stands -0.29; under RRIRERPPRLPRPRPRPMFHPRP, -0.897. In the case of RRIRTRPPRLPRPRPRPHSSPRP, the “shrunken log2 fold change” value is -0.119. For RRIRPRPPRLPRPRPRPTTKPRP the value was 0.253. Under RRIRYRPPRLPRPRPRPYHNPRP stands -0.525; under RRIRCRPPRLPRPRPRPPFLPRP, -0.0759.
